Values quoted from earlier work as cited in patent US20150010606A1, “INTRA-ARTICULAR INJECTION AND IMPLANT ATTACHMENT OF MOLECULE CONSISTING OF LUBRICIN AND EXTRACELLULAR SUPEROXIDE DISMUTASE OR HYALURONIC ACID AND EXTRACELLULAR SUPEROXIDE DISMUTASE” (Arthrex, Inc., priority 2013, published 2015).

B1: Extracellular superoxide dismutase [Cu—Zn] (protein, UniProt P08294 19-240, looked up)
Extracellular superoxide …: WTGEDSAEPNSDSAEWIRDMYAKVTEIWQEVMQRRDDDGALHAACQVQPSATLDAAQPRVTGVVLFRQLAPRAKLDAFFALEGFPTEPNSSSRAIHVHQFGDLSQGCESTGPHYNPLAVPHPQHPGDFGNFAVRDGSLWRYRAGLAASLAGPHSIVGRAVVVHAGEDDLGRGGNQASVENGNAGRRLACCVVGVCGPGLWERQAREHSERKKRRRESECKAA

Legend:
[1] = test system: osteoarthritis; conditions: intra-articular injection; human clinical studies; compared to a placebo control
[2] = test system: collagen-induced arthritis; conditions: mice with collagen-induced arthritis treated with SOD3

Row | Molecule | treatment of osteoarthritis [1] | histology of the joint [2] | joint swelling and deformity [2]
1 | SOD derived from bovine erythrocytes: superoxide dismutase derived from bovine erythrocytes, injected intra-articularly to treat osteoarthritis | significant success when compared to a placebo control |  | 
2 | B1 |  | less destruction of cartilage and bone, less infiltration of mononuclear cells, and less proliferation of synovial cells | suppression of joint swelling and deformity
